Sequences and labels used below:
B4: recombinant Psb27 (natural protein, T. elongatus, UniProt Q8DG60 22-134, looked up)
chain: CANVPTGLTGNFREDTLALISSLREAIALPENDPNKKAAQAEARKKLNDFFALYRRDDSLRSLSSFMTMQTALNSLAGHYSSYPNRPLPEKLKARLEQEFKQVELALDREAKS
notes: by the printed primers the natural stretch begins ANVPT and ends REAKS; No lipid modification, as the N-terminal cysteine is missing; the His tag is inferred; source: E. coli Overexpress C43, purified (IMAC, ResourceS ion exchange)

Settings in all cases: both partners purified
The target of the test “recombinant Psb27” is B4. Description: SPR; Biacore 3000, CM5 chip; Im7 fusion proteins captured on covalently bound DNase E7; Psb27 injected from 50 μM to 100 nM for 60 s in MBS-EP (20 mM MES, 150 mM NaCl, 3 mM EDTA, 0.05% Surfactant P20, pH 6.5), 30 μl/min, 298 K; steady-state responses fitted to a one-site binding isotherm.
Test [1] concerns the target T1, Im7-tagged lumenal domain of CP47 (residues 271-446) (UniProt Q8DIQ1 271-446).
T1 construct: CP47 (PsbB) of photosystem II, lumenal domain, residues 271-446; also called CP47 domain; source: cell-free expression (RTS100 system), purified on the chip
The test is described as above.

The target of test [2] is T2, CP43 in the monomeric Psb27-PSII intermediate complex (T. elongatus (endogenous), UniProt Q8DIF8 1-461).
T2 construct: CP43 (PsbC) of photosystem II of T. elongatus; source: endogenous, Psb27-PSII complex isolated from wild-type T. elongatus
Description: cross-linking; isolated monomeric Psb27-PSII complex without PsbO, PsbU and PsbV (2.4 μM) with a 1:1 mixture of BS3-H12/D12 (5 mM), 30 min on ice, 20 mM MES/NaOH, 10 mM CaCl2, 0.03% dodecyl-β-D-maltoside, pH 6.5; trypsin, LC-ESI-MS/MS, StavroX; found in light and heavy form.

These results are taken from PMC4758025, “Critical Assessment of Protein Cross-Linking and Molecular Docking: An Updated Model for the Interaction Between Photosystem II and Psb27” (Frontiers in Plant Science, 2016).

T1 sequence (Q8DIQ1 271-446): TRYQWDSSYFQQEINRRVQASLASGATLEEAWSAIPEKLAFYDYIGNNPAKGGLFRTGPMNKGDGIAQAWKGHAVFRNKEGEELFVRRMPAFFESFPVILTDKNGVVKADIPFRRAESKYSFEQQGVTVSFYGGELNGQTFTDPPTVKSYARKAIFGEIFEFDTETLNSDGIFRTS

B1: Im7-tagged C-terminal lumenal domain of D2 (residues 294-352) (domain or fragment)
chain: not shown
notes: D2 (PsbD) of photosystem II, C-terminus, residues 294-352; source: cell-free expression (RTS100 system), purified on the chip
B1: the dissociation constant Kd in the test with recombinant Psb27 was roughly 100 µM.

B2: Im7-tagged mature D1 C-terminus (mD1, residues 295-344) (domain or fragment)
chain: not shown
notes: D1 (PsbA) of photosystem II, mature C-terminus, residues 295-344; source: cell-free expression (RTS100 system), purified on the chip
Regarding B2, in the test with recombinant Psb27, the dissociation constant (Kd) was 34 µM.

B3: Im7-tagged lumenal domain of CP43 (residues 293-424) (domain or fragment)
chain: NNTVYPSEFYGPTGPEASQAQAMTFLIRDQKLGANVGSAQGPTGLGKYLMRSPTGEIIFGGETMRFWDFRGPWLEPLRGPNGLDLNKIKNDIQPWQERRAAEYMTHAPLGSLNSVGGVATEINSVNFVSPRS
modifications: Im7 fusion carrier omitted. Printed 293-424 taken as PDB 3ARC numbering, which is UniProt +12: printed K381, K339 and D383 then correspond to entry K369, K327 and D371, and the range spans the …
For the molecule B3, the Kd in the test with recombinant Psb27 is 21 µM.

For the molecule B4, the dissociation constant Kd in test [1] is roughly 100 µM.

B5: Psb27 in the monomeric Psb27-PSII intermediate complex (natural protein, T. elongatus (endogenous), UniProt Q8DG60 22-134, looked up)
chain: CANVPTGLTGNFREDTLALISSLREAIALPENDPNKKAAQAEARKKLNDFFALYRRDDSLRSLSSFMTMQTALNSLAGHYSSYPNRPLPEKLKARLEQEFKQVELALDREAKS
modifications: N-terminal lipid modification
notes: Psb27 of T. elongatus (tll2462), as it stands in the isolated Psb27-PSII complex; source: endogenous, Psb27-PSII complex isolated from wild-type T. elongatus
For B5, the binding result in test [2] is “binds”.
